This note sets out measurements from the DeepSol protein solubility set.

This data set in a line: soluble on expression in E. coli; label from the status in PepcDB or PDB records.
Regarding “MCPFDVLASVKDDPSLSPQLREKIGGALTRLREICKTADQPSVAKALPRSCAHNYFKEMISGHAPLRFSCHSSESTHTRVKHFDIASSRLPGPIVMSSSKTLMQRTTPALQSPKEIFAELNVIAFQTLRYIDEVEQIEFDVTNVREHDGSIMEDKERLFLSVCCSVFANFSFFASLHINAEKFLHFLRKLFTCYPLDNSYHNATHAADALQMMSLFFREPTVNFLFSDEEIAICFLAVLAVDVAHPGASDTLLVALDHPLASVFGDVAITEHASLLVLTSLLVLEDNFFFSTPDMAVSVDSAHLLKEALYDVVLNAALRSRPSLMSALRDIETSGRITDADAPKLMAALLVMACNSFAFRSQAQCCRMGAWFLSELHREECEMERHGIRVTLPHVAGADCAAVLSDYINVVVKPVTAATLALVPRDLQDRLEWNADLVDAAASTGGRACKVVVENSLVQWMTSSLSVMEILKKVATHASSVDRKASKCAILNASPSRSQGTAPDMMRADSLSSNSSTSGSMSAAKRDEATSNCPQLSFTSEPCSAAGSPTARPGRSEHYFSFLRLYDKCERAGESAKNFVGQLIFLALQLDPRYIAAYARKEYGDDCCGAECAEMGLLISKMEEAPSTAEVIASRPPGGSFSNRVADEIDHTDSFVLLLMDMYCSREAALAEMESVVLVSDKAKTPPPAEPAAPKAVPQFQQNSPIRMPVNTESKNTGPRLRLVP”, the “soluble on expression in E. coli” value is listed as “not soluble”.
To “MCQSNQIVSHFLSHRNVTNELAEKISKDHYSYKPAETSMSAEELVKHILTSFHLFANVIKEGNASPFQNKQEETETDLNVLAKTYTEKTVAILEQLTEEQLDREIDLTSAFGRKVTGRALLQLAMEHEIHHKGNLFVYVREMGHTELPFYQQRMLEHHHHHH” belongs “soluble”; to “MCRLLGFATAGSNTNLNGVLGMQNVRDFRNLSEIHNDGWGAALITVPDESPYRRDGGAPTPETGTAIYKNTIAARHDPIFDELANTPARGGLWHLRLASSNLPLILENQQPFYANGLSFIHNGDISDDQGRNIITNRAFPVDPSIVQSTGGRSDSAIFFAVILQYIGFGFALDEAVAQAVRELRKSYPKSSYNCMIQSQDQFIALCAAGREVTSKRIVEIYDQYGRGEQARDYRVLRYRALGGNDDQSKGVVVASSGFDQRAEDGWTRLENDQMIVASNRTGEFRVRSI”, “soluble”; to “MDADEGQDMSQVSGKESPPVSDTPDEGDEPMPIPEDLSTTSGGQQSSKSDRVVASNVKVETQSDEENGRACEMNGEECAEDLRMLDASGEKMNGSHRDQGSSALSGVGGIRLPNGKLKCDICGIICIGPNVLMVHKRSHTGERPFQCNQCGASFTQKGNLLRHIKLHSGEKPFKCHLCNYACRRRDALTGHLRTHSVIKEETNHSEMAEDLCKIGSERSLVLDRLASNVAKRKSSMPQKFLGDKGLSDTPYDSSASYEKENEMMKSHVMDQAINNAINYLGAESLRPLVQTPPGGSEVVPVISPMYQLHKPLAEGTPRSNHSAQDSAVENLLLLSKAKLVPSEREASPSNSCQDSTDTESNNEEQRSGLIYLTNHIAPHARNGLSLKEEHRAYDLLRAASENSQDALRVVSTSGEQMKVYKCEHCRVLFLDHVMYTIHMGCHGFRDPFECNMCGYHSQDRYEFSSHITRGEHRFHMS”, “not soluble”.
The entry for “MDAIITGESERIGLSVIDNNDVEHLIETNESGEITYHEQDGYPDDSSKRTDEGNEYVNQARKYAKYYVYLKRGYDTVSAPENPVRIDAVRQAIAQMDLETFETHFGDLYQQFSSETDGSAEPVYDVPPQATTPPIYAQNVYLGIDPLETDLGDELAAKHDLDITAESAADVAIADLSTEEIKQWGEFTGEFATRAIEEQIDLSDAVYIDNTSQLYVKHPEGTDLVAADDHLEPTSREPDTVIELLPIELESLEYFQSFMDHYLRCQIRDVFIEMGVVPPEEFRVLGLGQFMAAHCYSYIDFYPEFHNPESGAFTQQTSLF” is “not soluble”; for “MDAQYDISFADVEKAHINIRDSIHLTPVLTSSILNQLTGRNLFFKCELFQKTGSFKIRGALNAVRSLVPDALERKPKAVVTHSSGNHGQALTYAAKLEGIPAYIVVPQTAPDCKKLAIQAYGASIVYCEPSDESRENVAKRVTEETEGIMVHPNQEPAVIAGQGTIALEVLNQVPLVDALVVPVGGGGMLAGIAITVKALKPSVKVYAAEPSNADDCYQSKLKGKLMPNLYPPETIADGVKSSIGLNTWPIIRDLVDDIFTVTEDEIKCATQLVWERMKLLIEPTAGVGVAAVLSQHFQTVSPEVKNICIVLSGGNVDLTSSITWVKQAERPASYQSVSVHHHHHH” it is “soluble”; for “MDAVVATQTPAEVFDVVVVGGGPAGATAATDLARAGRRVALLDPEGRPKPCGGAIPPRLMSEFAIPDDLPCAQVSGARALAPSGRVVDMPITGAVVSMVDRAVFDPWLRARAHQAGACRLHGRFEGFDRQEDGALVVLWRPEGAAVANRIVARYVVGADGARSKVAALAVAGAAPPCVAAYHEIIRAPAAPAASAPTPATAAGPAYDPARCDVIYRGDISPDFYGWIFPHGETLSIGSGTAVKGFSLREAVALLRREAGLDGLEVVRREGAPIPLRPRKRWDNGRDVVLIGDAAGVVAPASGEGIYYAMASGKMAAEALGEALAGAGPAALAQVRRRFLKAHGKTFWSLGLLQRFWYRSDRWRESFVAICADRDVQRLVWQSYLTKDLARGNMGAYMRIFFKDVAHLIGIAKSLEHHHHHH” it is “not soluble”.
To “MDAWKEITKTTENDGVSTCSLSSIAFDPYSELVWTGHKNGQIKSSFGPSLTSYTQFIGHEGPVHQVLPQERGVFSLSSKSLRLSNRKGTIRWRYHSVPCVQRSMIILYSCFLCSKHAVLISRDSDCIDYRAMFYQSRNNPEVVIGGYHQKLTVVNAERGISIHKDKNVSDIFIMRRNRLLCCGSTNGEIILRDPNSFQPVNKVVAHTGTISDIDTSGNLLLSCGYSLRHGTYMLDPFVKVWDLRNLSSLVPIPFPAGPTIIRMHPKLSTTAVVCSCSGQFHIVDTGNPLDAKLMQIPLTSYLTGMDIASTGDAMVFTDVEDNIHLWSPLENPSFSDLKLPIQLPNTSTETVQLENNDPLNSIGLPYYKDELLSSWSKYLIFDVGKPILDSNLLIAKQISENSHPVPQEIKSFHRNQIIEVPWLNRKLISEGATPKFHSERQKDIMSGNDIEGSASYFEEIEDTISGPDSIPKFYQRPVIKYSKFGIEDFDFGFYNKTKYAGLETDITNSYCNSVLQLLSYVPSFSKAAISHSLGPCDLMECLLCELGFLFAMLKESTGRNCQATNFLRAFSNSSFAQSLGIVFDDYSDGTFPDSFVIQKFTKFMLTEISRIADYEDKKDGTSFPVSFLLKSFCIPEMQTYRCGICGITSQKIKSSLYIIDLHYPSQQLESILSFEWLFKMSLDRRVDLPPGWCEYCLAHQPFLLRSFIRSLPDCLFINTQVKHHEHWKLWARKNWLPKKLHLRRVNDTMQCVSQKISNLDKDQQSLSVYVLRGIIYEIRQNGEEPHFVSTIRVSDNTSSDNPDDNRWYIFNDFLVKEVTEEEALTVHGPWKIPIIVYYEKLDTKIPQWDEVSDYTLLYQPYSLNKNPPINKIQPLTTDEMLYPKMLVGIDSEFVALQQEETEVRSDGTKSTIKPSKLSLARVSVLRGEGPNKGLPFIDDYVATDDKVTDYLTEYSGIHPGDLDPDRSPYNVVPLKVAYKKLRLLVNAGCIFVGHGLQKDFRIINLLVPPEQVVDTVDLFFLSSRQRKLSLKFLAWYLLDEEIQLTEHDSIEDALTALKLYDCYDKLKSQGKLEETLDNIYEVGRRFKFRPPSVASMSLEDRNSYGDESVISNQTN” belongs “soluble”.
